Consider 15 molecules from patent publication US20020065226A1.

A word on the Ki: it is a dissociation constant, usually derived from enzyme kinetics or from competition with a known ligand. Low values mean tighter binding, high ones weaker binding. Broadly, the Kd is the concentration at which binding is half-saturated.

Non-standard residues stand in square brackets, D forms with d. pGlu = O=C1CC[C@@H](C(=O)O)N1; azaGly = NNC(=O)O

Experiment [1] concerns the target chorionic peptidase-1 (C-ase-1) (human). As to the kind of experiment: competitive inhibition of C-ase-1 degradation of GnRH (competitor).
Experiment [2] has the same target. Kind of experiment: inhibition of C-ase-1 degradation of GnRH (competitor).
For experiment [3] the target is unchanged. As to the kind of experiment: competitive inhibition of C-ase-1 degradation of GnRH.
Experiment [4] has the same target. Kind of experiment: cell-based or functional assay.
For experiment [5] the target is unchanged. Kind of experiment: competitive inhibition of C-ase-1 degradation of mammalian GnRH (competitor).
Experiment [6] addresses human placental GnRH receptor (human) (UniProt P30968). As to the kind of experiment: competitive radioreceptor assay on human term placental membranes, radiolabeled Buserelin as competitor.
For experiment [7] the target is unchanged. Kind of experiment: competitive radioreceptor assay, human term placental GnRH receptors, 125I-Buserelin as competitor.
Experiment [8] addresses chorionic peptidase-1 (C-ase-1) (human). As to the kind of experiment: C-ase-1 degradation assay, Lineweaver-Burke double reciprocal plot.
The target of experiment [9] is baboon ovarian enzymatic activity that degrades GnRH. Kind of experiment: degradation assay with baboon ovarian homogenate, double reciprocal plot.
The target of experiment [10] is human placental GnRH receptor (human) (UniProt P30968). Kind of experiment: homologous radioreceptor assay, average of three human term placental membrane preparations.
Experiment [11] concerns the target baboon endometrium GnRH receptor (baboon). As to the kind of experiment: receptor binding, baboon endometrium (stroma and epithelium).
Experiment [12] addresses baboon ovarian GnRH receptor (baboon). Kind of experiment: radioligand binding, baboon ovary membrane fraction.
For experiment [13] the target is unchanged. Kind of experiment: radioreceptor assay, baboon ovary membrane fraction, radiolabeled D-Arg(6)-chicken II GnRH-aza-Gly(10)-amide.
Experiment [14] concerns the target human placental GnRH receptor (human) (UniProt P30968). As to the kind of experiment: radioreceptor assay on human term placental membranes, radiolabeled D-Arg(6)-chicken II GnRH-aza-Gly-amide as label.
The target is the same in experiment [15]. Kind of experiment: homologous radioreceptor assay, placenta 2 membrane preparation, radiolabeled D-Arg(6)-chicken II GnRH-aza-Gly-amide as label.
For experiment [16] the target is unchanged. As to the kind of experiment: homologous radioreceptor assay on human term placental membranes, radiolabeled D-Arg-chicken II GnRH-aza-Gly-amide as label.
Experiment [17] has the same target. As to the kind of experiment: competitive radioreceptor assay on human term placental membranes, radiolabeled Buserelin as competitor, double reciprocal plot.

Take “6D-Trp-GnRH-10 ethylamide (from UniProt P01148 24-32) (peptide)”: the Ki in [1] was determined as 60 nM.
“9OH-Pro-GnRH (from UniProt P01148 24-92) (peptide)” showed a relative potency compared to GnRH (relative potency) in [2] of 1.5.
In experiment [3], Antide (peptide) gave a fold less potent than GnRH of 3 fold and a fold more potent than salmon or chicken II GnRH of 2 fold. Also, in experiment [1], the Ki stood at 120 nM. In experiment [2], this molecule displayed a relative potency compared to GnRH (relative potency) of 0.6.
For “Buserelin (from UniProt P01148 24-32) (peptide)”, in experiment [4], the rate of degradation by C-ase-1 (fold of the rate for mammalian GnRH) was found to be 0.25. The Ki in [1] came out at 110 nM.
Molecule “D-Arg (6)-salmon GnRH-aza-Gly (10)-amide (peptide)” showed a Ki in [1] of 200 nM.
The same measure, in the same setting: for “Mammalian D-Trp (6) GnRH (from UniProt P01148 24-92) (peptide)” the value was 20 nM.
On to chicken I GnRH (peptide), for which, in experiment [3], the fold less potent than GnRH amounted to 3 fold and the fold more potent than salmon or chicken II GnRH is 2 fold. In experiment [1], this molecule gave a Ki of 80 nM. The relative potency compared to GnRH (relative potency) in experiment [2] was found to be 0.6.
Molecule chicken II GnRH (peptide) gave a potency relative to mammalian GnRH in [5] of 0.167 fold. This molecule also showed a fold potency over mammalian GnRH in [6] of 3 fold. The same molecule displayed a Ki in [1] of 200 nM. Moreover, the relative potency compared to GnRH (relative potency) in [2] was determined as 0.2.
With chicken II GnRH-ethylamide (peptide), the fold less active than GnRH in experiment [3] was over 200 fold. In experiment [7], this molecule registered a Kd of 30 nM and a fold activity over GnRH of 33 fold. Moreover, the Ki in experiment [1] came out at 130 nM.
The molecule “des-Gly10, D-Leu6-GnRH-ethylamide (from UniProt P01148 24-92) (peptide)” returned a Ki in experiment [1] of 80 nM.
In [1], “des-Gly10-GnRH-ethylamide (from UniProt P01148 24-92) (peptide)” displayed a Ki of 70 nM.
Regarding lamprey GnRH (peptide), the Ki in experiment [1] worked out at 20 nM. In [2], this molecule had a relative potency compared to GnRH (relative potency) of 1.5.
For the molecule “mammalian GnRH (from UniProt P01148 24-33) (peptide)”, the Ks in [8] and in [9] was 30 nM throughout. Moreover, in experiment [1], the Ki was found to be 30 nM.
In turn, salmon GnRH (peptide) had a Ki in experiment [1] of 300 nM. In [2], this molecule returned a relative potency compared to GnRH (relative potency) of 0.2.
Regarding [pGlu]HWSH[dR]WYP[azaGly]-NH2 (also: also used radioiodinated as label) [D-Arg(6)-chicken II GnRH-aza-Gly(10)-amide], the Kd in experiment [10] was 93 nM; in experiment [11], 60 nM; in experiment [13], 10 nM; in [15], 68 nM; in [17] it was 175 nM. The molecule also had a fold affinity over chicken II GnRH or Buserelin in [6] of 2 fold. In addition, the fold affinity over mammalian GnRH came to 60 fold in experiment [6] and 25 fold in [14]. The molecule also gave a specific activity of binding, fold over placental membrane preparations in [12] of 50 to 100 fold. In addition, the fold change of affinity against the assay with the Buserelin label in experiment [16] was 2 fold.
